Assay [1] addresses T1, human LRRC15 extracellular domain with C-terminal His tag (human, UniProt Q8TF66 22-538).
T1 construct: Recombinant, made in HEK293; the entry holds the extracellular domain and the His tag; SPR analyte; also called TPP-1545; hLRRC15 CT-His
T1 sequence: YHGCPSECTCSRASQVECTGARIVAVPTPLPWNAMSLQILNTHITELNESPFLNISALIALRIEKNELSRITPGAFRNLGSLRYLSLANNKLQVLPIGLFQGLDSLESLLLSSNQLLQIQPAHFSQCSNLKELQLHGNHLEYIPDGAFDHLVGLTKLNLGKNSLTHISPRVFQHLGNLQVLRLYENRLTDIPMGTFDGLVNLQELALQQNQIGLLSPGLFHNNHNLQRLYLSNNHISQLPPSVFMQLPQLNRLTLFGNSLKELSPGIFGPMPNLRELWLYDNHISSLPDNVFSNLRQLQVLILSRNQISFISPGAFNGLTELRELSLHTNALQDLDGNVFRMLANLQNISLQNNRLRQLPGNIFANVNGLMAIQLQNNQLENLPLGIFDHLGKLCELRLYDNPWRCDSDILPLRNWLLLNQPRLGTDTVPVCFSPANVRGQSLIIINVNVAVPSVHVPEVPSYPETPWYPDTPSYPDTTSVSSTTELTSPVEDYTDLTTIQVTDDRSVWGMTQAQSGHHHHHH
In words: calculated from SPR kd, 10°C. On the procedure:
(§1) To assess if anti-LRRC-15 antibodies show a difference in binding at different temperatures, binding assays were conducted using surface plasmon resonance (SPR). Binding assays were performed on a Biacore T200 instrument at temperatures of 10° C., 20° C., 25° C. and 37° C. with assay buffer HBS EP+, 1 mg/ml BSA (bovine serum albumine), 300 mM NaCl, 0.05% NaN₃. Antibodies were captured via anti-human Fc IgGs covalently amine coupled to a CM5 sensor chip and human LRRC15 was used as an analyte in a concentration series from 1.56-200 nM in multi cycle kinetics mode. Pre-experiments were conducted to have an equal capture level at each temperature. Obtained sensorgrams were fitted to a 1:1 Langmuir binding model to derive kinetic data.

The target of assay [2] is T1, human LRRC15 extracellular domain with …. The assay can be described thus: SPR at 10-37°C (Example 3). The method, then: as §1
For assay [3] the target is unchanged. The assay can be described thus: SPR Biacore T200, 25°C, antibody captured, LRRC15 analyte. The method, then: (§2) To assess the binding kinetics and affinity of anti-LRRC15 antibodies as well as their species cross-reactivity profile, binding assays were conducted using surface plasmon resonance (SPR). Binding assays were performed on a Biacore T200 instrument at 25° C. using assay buffer HBS EP+, 1 mg/ml BSA, 300 mM NaCl, 0.05% NaN3. Antibodies were captured via anti-human Fc IgGs covalently amine coupled to a CM5 sensor chip and human, mouse and cynomolgus LRRC15 were used as analytes in a concentration series from 1.56-200 nM in multi cycle kinetics mode. […] Obtained sensorgrams were fitted to a 1:1 Langmuir binding model to derive kinetic data.
For orientation: SPR reads the build-up and loss of mass on a sensor chip optically.

For assay [4], the target named is T2, cynomolgus (Macaca fascicularis) LRRC15 extracellular domain with C-terminal His tag (cynomolgus monkey (Macaca fascicularis), UniProt Q8TF66 22-538 (human entry)).
T2 construct: Recombinant, made in HEK293; the entry holds the extracellular domain and the His tag; SPR analyte; also called TPP-9046
T2 chain: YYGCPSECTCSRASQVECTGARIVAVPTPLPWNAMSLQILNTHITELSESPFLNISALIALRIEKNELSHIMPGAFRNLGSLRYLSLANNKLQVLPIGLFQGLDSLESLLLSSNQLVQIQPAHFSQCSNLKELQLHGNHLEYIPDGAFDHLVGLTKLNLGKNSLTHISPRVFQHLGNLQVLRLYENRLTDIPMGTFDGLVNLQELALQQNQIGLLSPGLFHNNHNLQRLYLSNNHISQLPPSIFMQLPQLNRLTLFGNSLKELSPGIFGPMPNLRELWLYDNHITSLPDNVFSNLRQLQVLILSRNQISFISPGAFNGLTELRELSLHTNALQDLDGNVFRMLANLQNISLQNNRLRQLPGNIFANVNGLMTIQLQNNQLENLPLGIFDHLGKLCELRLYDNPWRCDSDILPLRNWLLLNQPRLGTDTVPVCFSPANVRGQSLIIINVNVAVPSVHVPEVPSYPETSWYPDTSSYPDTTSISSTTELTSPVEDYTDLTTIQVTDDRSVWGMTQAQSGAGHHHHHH
The description is as above. On the procedure: as §2

Assay [5] has as its target T1, human LRRC15 extracellular domain with …. In words: binding of the purified IgG, method not given.
The target is the same in assay [6]. In words: SPR Biacore T200, antibody captured, LRRC15 analyte, 20°C. On the procedure: as §1
Assay [7] shares this target. In words: SPR (Example 6), overview table, repeats Table 9; head prints [M^-1]. The method, then: as §2
Assay [8] has as its target T2, cynomolgus (Macaca fascicularis) LRRC15 …. The assay is described as above. On the procedure: as §2
For assay [9], the target named is T1, human LRRC15 extracellular domain with …. In words: SPR Biacore T200, antibody captured, LRRC15 analyte, 10°C. The method, then: as §1
Assay [10] has the same target. In words: SPR Biacore T200, antibody captured, LRRC15 analyte, 25°C. The method, then: as §1
For assay [11] the target is unchanged. In words: calculated from SPR kd, 25°C. The method, then: as §1

B1: TPP-1633 (antibody, human IgG1, kappa, V domains shown)
VH: EVQLLESGGGLVQPGGSLRLSCAASGFTFSGYMMQWVRQAPGKGLEWVSGIYPSGGYTNYADSVKGRFTISRDNSKNTLYLQMNSLRAEDTATYYCAREKASDLSGSYSEALDYWGQGTLVTVSS
VL: DIQMTQSPDSLSASVGDRVTITCRASQDVGSWLAWYQQKPGKAPKLLIFAASSLESGIPSRFSGSGSGTDFTLTISSLQPEDFATYYCQQANGFPLTFGGGTKVEIKR
notes: also called 060E-M016-G14-hIgG1
The Kd is the free concentration of one partner at which half of the binding sites on the other are occupied at equilibrium, for simple one-to-one binding. In the case of B1, the “Complex Half Life” value in assay [1] is 8.3 min; in [11], 0.5 min. The “Temperature dependent loss in binding affinity” value in assay [2] was above 9 fold. Besides, the Kd was 150 nM in [3]; 190 nM in assay [4]; around 200 nM in assay [5]; 80 nM in assay [6]; 150 nM in [7]; 190 nM in assay [8]. The values for the equilibrium dissociation constant (Kd) in assay [9] and in assay [10] were 18 nM and 160 nM, respectively.
